This data set deals with the molecule itself. Put plainly: SEC; 1 ml (20 mg, 400 µM) purified Csk loaded onto a HiLoad 16/60 Superdex 200 column; apparent molecular weight from partition coefficients of standard proteins. In general terms: In gel filtration, larger molecules generally elute earlier.

B1: purified recombinant Csk WT (natural protein, mouse, UniProt P41241 1-450, looked up)
chain: MSAIQAAWPSGTECIAKYNFHGTAEQDLPFCKGDVLTIVAVTKDPNWYKAKNKVGREGIIPANYVQKREGVKAGTKLSLMPWFHGKITREQAERLLYPPETGLFLVRESTNYPGDYTLCVSCEGKVEHYRIMYHASKLSIDEEVYFENLMQLVEHYTTDADGLCTRLIKPKVMEGTVAAQDEFYRSGWALNMKELKLLQTIGKGEFGDVMLGDYRGNKVAVKCIKNDATAQAFLAEASVMTQLRHSNLVQLLGVIVEEKGGLYIVTEYMAKGSLVDYLRSRGRSVLGGDCLLKFSLDVCEAMEYLEGNNFVHRDLAARNVLVSEDNVAKVSDFGLTKEASSTQDTGKLPVKWTAPEALREKKFSTKSDVWSFGILLWEIYSFGRVPYPRIPLKDVVPRVEKGYKMDAPDGCPPAVYEVMKNCWHLDAATRPTFLQLREQLEHIKTHELHL
notes: Csk, tyrosine-protein kinase, mouse, full length (50.6 kDa), from pGEX-6P-3; also called WT Csk; full-length Csk; source: E. coli BL21(DE3), purified (GST Gravitrap, PreScission cleavage, HiTrap Q, Superdex 200); not shown: GST, N-terminal, cleaved
Turning to B1, the binding result is “binds”.

For the origin of these results see publication PMC8989918, “SH3-domain mutations selectively disrupt Csk homodimerization or PTPN22 binding” (Scientific Reports, 2022).
